B1: PSPH4058: OYE protein from Pseudomonas syringae phaseolicola 1448A (protein)
chain: MTTIFDPITIGDLQLPNRIIMAPLTRCRADEGRVPNALMSEYYVQRASAGLILTEATSVTPMGVGYPDTPGIWSNDQVRGWSNITKAVHTAGGRIVLQLWHVGRISHPAYLNGETPVAPSAIAAEGHVSLMRPITPLPTPRALELAEIGDIVEAYRVGAENAKAAGFDGVEVHGANGYLLEQFLLTGSNQRTDEYGGSVENRARLLLEVTDAVIEVWGAGRVGVHLSPRFDMHDMSDANRTETFSYVAKELGKRGIAFICARERDAEDSLGPQLKKDFGGVYIANEKFTKDTANTWLAEGKADAIAFGVPYIANPDLPERLASDAPLNEAHPETFYGKGPVGYIDYPRL
B2: PA1146: aldehyde reductase (AR) from Pseudomonas aeruginosa (protein)
chain: MSDLHYWNYPTDILCGVGALEQLPRRCALAGARRPLLVTDPGMRALEPLRLVRECLERAGIDHDLFHELSSNPSLAEVQGGARRFEAGGHDALIALGGGSALDAAKGIALLSRDPHGLERFEWTQTLRSYPTLADYPPLGLPPLLALPTTAGTGSELGREAVLTDTQLGIKRVVGHRELLAACVFLDPRLTRGLPPALSAATGMDALTHHLEALFSPLYHPMSAGIALEGVRLVRQHLENAVRDGNDLAAREGMLVASASAAVAFQKGLGGVHALAHPLGARHHLHHGLLNAVLLPYVLLANRPAIEADAARLARYLELDEASFDGLLAWILELRARIGIPANLAALGLDGEDAQWVGEQALADLSSSATNALPLDARDYARIYRQAVAGTLA
B3: PP_3370: aldehyde reductase (AR) from Pseudomonas putida (protein)
chain: MQYVKLGSTGLDISRLCLGCMTFGEPDAGTHPWTLGEDASRPIIRHAVEQGINFFDTANSYSAGTSEIILGKLLREFTRREETVIATKVFFPANMWEGASRPNEQGLSRKAIMANIDASLSRLGTDYVDLYQIHRWDYHTPIEETMEALHDVVKAGKARYIGASSMYAWQFAKAQQVAANHGWSRFVSMQNYLNLIYREEEREMIPLCLDQGVGLMPWSPMARGRLTRPHGQQTQRTRTDVSGQSFYEKTEVEDGRVIDVVEQIASERGVPMAQVALAWVLGRAGVSAPIVGASKPAHLDDALGALSLQLSEDEVARLQAPYVPHAVTGFK
B4: RHA03305: OYE protein from Rhodococcus sp. RHA1 (protein)
chain: MQHTSTTASTLFSPLKLGSTELANRVALAPMTRVSGDEDGSANESIASYYEVFAKGGFGLLITEGIYPDTKYSQGYLNQPGLATAQHADSWKPVVERVHTAGARIFAQLMHAGAQSQGNRYVTETIAPSTTPPLGEQLGFYGGTGPYATPRALSLRDIDDVCAGFAQAAQHAVAAGFDGVEIHGANGYLLDQFLTDYMNQRDDEYGGSLANRLKIYREVIAAVRQVVGSKVTVGVRISQSKVSDYNHRWAGGESDAAEIFQGLAETGVDYIHTTEFDATAPAFADSGTTLAAFATKYSGLPVIANGQLGDPAAADALIENGSAQVISLGKPALANRDWPQRALDAKPIQSDVDPSVFSPMATVKSWELSA
B5: SAV1511: OYE protein from Streptomyces avermitilis MA-4680 (protein)
chain: MSALFEPYSLRDLTIPNRVWMAPMCQYSAAPQGPAAGAPHDWHFAHYAARATGGTGLIVVEATAVSPEGRISPYDLGIWNDTQVEAFRRITRFLAAQGTVPAIQLAHGGRKASTDRPWKGGAPLAADEHGWQPLGPSPVAFDERHPVPTELSVAEIRQIVGQFADAARRALAAGFEIAEIHGAHGYLINEFLSPHSNRRTDEYGGSYENRVRFALEVVDAVREVWPAGKPLFFRVSATDWLDEGGWTADDTVRFAAELQAHGVDLLDVSTGGNASGVRIPTGPGYQVPFAARVKAGTSLPVAAVGLITDAEQAEKILANGEADAILLGRELLRNPSFARLAARELGGDVHVPAQYHRSV
B6: CV_2177: aldehyde reductase (AR) from Chromobacterium violaceum (protein)
chain: MRRLEGKQALITGGTSGIGLETAKQFLAEGAKVAITGRSEAGLAQANEVLGGRALLLKSDAGSLDDQRALPAQLRSHGWSRLDAAYLNAGDVTHLPLADWSEADFDRVMAVNLKGPFFLLQALSPLLANPSSVILCGSVGARIGVPSSSAYAASKAGLLSLARTLSAEWLDRGIRVNGLSPGPTHTPAFGKLGMPEDELPALRDRIRKLVPLGRLGRPEELAKAAVFLASDESSYMLGSELLVDGGVGNV
B7: BH1481: OYE protein from Bacillus halodurans C-125 (protein)
chain: MEHKLFSSYVVKGVTLKNRIVMSPMCMYSSDQKDGKIRPFHISHYESRAAGQVGLIIVEATAVTPQGRISPYDLGIWSDDHISGLTETVERIHAHGAKAAIQLAHAGRKAELDGPIIAPSAISYDKMKTPDAMTEEQISETIEAFKLGALRAKKAGFDIIEIHGAHGYLINEFLSPLTNKRTDAYGGSLENRYRLLREIISEIQTVWDGPLFVRISAAEYAEGGNELSDFITLAKWMKKQGIDLIDCSSGAVVPAPIPVYPGYQVPLAEAIRHEANIATGAVGLITSGIQAEEILQNERADLIFVARELLRNPYWPREAALELGTTISGPSQYDRAWL
B8: BH2491: aldehyde reductase (AR) from Bacillus halodurans (protein)
chain: MLQGKTAIVTGASRGIGRATAMELARHGANVVVNYAGNKEKAEKVVAEIKELGVEAIAIQADVADSESVQAMVKETIDTFGAVDILVNNAGITRDNLFMRMKEEDWDAVIDTNLKGVFHCSKAVTRPMMKQRFGRIINVSSVVGAIGNAGQANYVAAKAGVIGLTKTLARELANRNITVNAVAPGFIETDMTGELPEDVKAQMLGQIPLARLGQPEEVAKAVRFLASDDASYLTGQTIHVNGGMVM
B9: PA2918: aldehyde reductase (AR) from Pseudomonas aeruginosa (protein)
chain: MVDHSIKGKTVLITGGAKNLGGLIARDLAAHGAKAITIHYNSAASKADADATVAALQAAGAKAVALQGDLTSAAAMEKLFADAIAAVGKPDIAINTVGKVLKKPITEISETEYDEMSAVNSKSAFFFLREAGKHVNDNGKICTLVTSLLGAYTPYYAAYAGTKAPVEHFTRAASKEFGARGISVTAVGPGPMDTPFFYPAEGADAVDYLKNAAALSPFSKTGLTDIDDVVPFIRHLVSEGWWITGQTILINGGFSTK
B10: CV3501: OYE protein from Chromobacterium violaceum ATCC 12472 (protein)
chain: MNADKLLTPLTMGAVALSNRVVMAPLTRLRNIEPGDVPGPLAKEYYRQRASAGLIVAEGTHISPTAKGYAGAPGIYSEEQVRAWSEVTGAVHQDGGKIALQLWHTGRISHRSLQPNGDAPVGPSAIQADSRTNIRAADGSLVREQCDTPRALEIEEIEDIIEDYRRAADNARRAGFDMVEIHGAHGYLIDQFLSPAANVRTDQYGGSVENRARFLLEVVDAVVAEWDADHVGIRISPLGIFNGVSNTDQLDMALYLAEQLAKRKLAFLHISEPDWAGGPTLDDGFRAELRQRYPGVIIGAGGYSAEKAETLLKKGFIDAAAFGRSYIANPDLVERLKQNAPLNPPKPDTFYGGGAEGYTDYPTL
B11: XCC0307: OYE protein from Xanthomonas campestris pv. campestris str. ATCC 33913 (protein)
chain: MSQLFTPINFGPLALANRIVIAPMCQYSAQDGRATDWHRIHLGTLSQSGAALLILEAAAVQPQGRISYADLGLYDDATEQALGEVLASVRRWSPMPIGIQLAHAGRKASTDLPWKGGEAIAPDHANGWQTVSASALPFRDGQPLPQALDAAGIDAVVEAFVTAAKRAERLELQLIELHAAHGYLMHQFLSPLSNQRSDAYGGSLDNRMRLTLRIFDAVRAAVSDQMAIGVRISATDWVDGGWDLPQSIALSKALDARGAHYIHVSSGGLDPRQQIPVQASYQIPFAEAIRAQVDTPVIGVGLITEPQQAEAILRDGQADAIALARGILYDPRWPWHAAAALGASVTPAPQYQRCEPREARGVFAS
B12: PSPTO_2097: aldehyde reductase (AR) from Pseudomonas syringae (protein)
chain: MIEHLKLAGKVALVQGGSRGIGAAIVNRLAKEGAAVAFTYINSEVNALEIQDSINANGGRALAIRADSADEKAIRQAVQTTAETLGRLDILVNNAGVLAIAPLNEFSMQDFDKTLAINVRSVFIASQEAARHMEEGGRIINIGSTNAERMPFAGGATYAMSKSALIGLTKGMARDLGPQGITVNNVQPGPVDTDMNPAQGEFAESLKALMALPRYGKSEEIASFVAYLAGPEAGYITGASLTIDGGFSA

Columns and labels:
[1] = OYE hydrogenation activity screen, NADPH oxidation at 340 nm; assay type: biochemical; settings: 1 mM substrate, 0.25 mM NADPH, 2.5 μg protein; cut-off 0.05 U/mg protein; ND = not detected
Description: 25 putative OYE genes (Table 1) were cloned based on the Pfam domain of the FMN oxidoreductase family PF00724. Purified OYEs were screened for hydrogenation activity against acrolein, 2-cyclohexn-1-one, cis,cis-muconic acid, trans,trans-muconic acid, and 2-hexendioic acid. Substrate specificity was measured spectrophotometrically in 96-well plates by following incubation for 20 min at room temperature in the anaerobic chamber. Buffers and reagents were also degassed and sparged with Ar. Reaction mixtures contained potassium phosphate (50 mM and pH 7.0), NaCl (10 mM), NADPH (0.25 mM), various substrates (1 mM) and protein (2.5 μg) in a final volume of 200 μL. Enzyme reactions were monitored by following the decrease in absorbance at 340 nm (ε340 nm=6,200/M·cm) as a measure of the conversion of the cofactor NADPH to NADP+.

[2] = AR reductase activity, NAD(P)H oxidation at 340 nm; assay type: biochemical; settings: 10 mM, ND = no activity was detected; for Activity [U/mg protein] Adipaldehyde: 1.8% DMSO
Description: Enzyme activity of purified ARs was measured spectrophotometrically in 96-well plates Reaction mixtures contained 100 mM HEPES buffer (pH 7.5), 0.4 mM NADH/NADPH, 10 mM adipaldehyde or butylaldehyde, and proteins (10 μg for adipaldehyde screen, 2 μg for butyraldehyde screen) in a final volume of 200 μL Reaction mixture for adipaldehyde screening contained 1.8% DMSO. Enzyme reactions were monitored by following the decrease in absorbance at 340 nm (ε340 nm=6,220/M·cm) due to oxidation of NAD(P)H to NAD(P)+.

Row | Molecule | Activity [U/mg protein] 2-cyclohexen-1-one [1] [U/mg protein] | Activity [U/mg protein] Butyraldehyde [2] [U/mg protein] | also measured
1 | B1 | 0.22 | – | –
2 | B2 | – | 1.68 ± 0.144 | Activity [U/mg protein] Adipaldehyde [2]: 0.696 ± 0.032 U/mg protein
3 | B3 | – | 1.516 ± 1.382 | Activity [U/mg protein] Adipaldehyde [2]: 0.437 ± 0.043 U/mg protein
4 | B4 | – | – | Activity [U/mg protein] acrolein [1]: 0.08 U/mg protein
5 | B5 | 0.23 | – | Activity [U/mg protein] acrolein [1]: 0.05 U/mg protein
6 | B6 | – | 0.151 ± 0.054 | –
7 | B7 | 0.13 | – | –
8 | B8 | – | 0.108 ± 0.026 | –
9 | B9 | – | 0.137 ± 0.03 | –
10 | B10 | 0.07 | – | –
11 | B11 | 0.15 | – | –
12 | B12 | – | 0.59 ± 0.597 | Activity [U/mg protein] Adipaldehyde [2]: 1.046 ± 0.009 U/mg protein

— US12371675B2, “Process and microorganism for synthesis of adipic acid from carboxylic acids” (THE GOVERNING COUNCIL OF THE UNIVERSITY OF TORONTO, priority 2015, dated 2025)
